Data on three molecules can be found in patent US20120316071A1 (published 2012).

In assay [1] the target is T1, rHuman Erythropoietin R/Fc Chimera, CF (R&D Systems Cat#963-ER) (human, UniProt P19235 25-250).
T1 construct: Bought recombinant protein; also called EPO R/Fc; Epo R; Fc part of the bought chimera not given
T1 sequence (looked up): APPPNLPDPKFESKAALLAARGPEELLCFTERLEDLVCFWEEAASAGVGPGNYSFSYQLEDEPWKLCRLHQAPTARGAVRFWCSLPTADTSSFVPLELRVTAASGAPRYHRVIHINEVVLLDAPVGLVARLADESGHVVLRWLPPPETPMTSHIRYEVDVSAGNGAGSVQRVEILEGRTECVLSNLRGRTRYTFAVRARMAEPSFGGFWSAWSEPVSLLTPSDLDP
As to the kind of experiment: MSD multispot ECL, antigen spotted on plate; Fab 1.19 uM; blank spot 24999.

The target in assay [2] is T2, rHuman Notch-1/Fc Chimera, CF (R&D Systems Cat#3647-TK) (human, UniProt P46531 19-526).
T2 construct: Bought recombinant protein; Fc part of the bought chimera not given
Described as above.

Assay [3] concerns the target T3, Recombinant Human DLL4 (R&D Systems Cat#1506-D4/CF) (human, UniProt Q9NR61 27-524).
T3 construct: Bought recombinant protein; also called delta-like protein 4; rHuman DLL4
The assay is described as above.

Assay [4] addresses T4, rHuman EGF R/Fc Chimera, CF (R&D Systems Cat#344-ER) (human, UniProt P00533 25-645).
T4 construct: Bought recombinant protein; also called epidermal growth factor receptor; Fc part of the bought chimera not given
The description is as above.

The target in assay [5] is T5, rHuman P-Cadherin/Fc Chimera, CF (R&D Systems Cat#861-PC) (human, UniProt P22223 108-654).
T5 construct: Bought recombinant protein; Fc part of the bought chimera not given
The assay is described as above.

In assay [6] the target is T1, rHuman Erythropoietin R/Fc Chimera, CF …. Description: MSD multispot ECL, antigen spotted on plate; Fab 0.07438 uM; blank spot 2504.
Assay [7] concerns the target T2, rHuman Notch-1/Fc Chimera, CF (R&D …). The description is as above.
Assay [8] addresses T3, Recombinant Human DLL4 (R&D Systems …). Described as above.
The target in assay [9] is T4, rHuman EGF R/Fc Chimera, CF (R&D …). Described as above.
Assay [10] concerns the target T5, rHuman P-Cadherin/Fc Chimera, CF (R&D …). The assay is described as above.
Assay [11] deals with T1, rHuman Erythropoietin R/Fc Chimera, CF …. As to the kind of experiment: MSD multispot ECL, antigen spotted on plate; Fab 0.2975 uM; blank spot 5019.
Assay [12] deals with T2, rHuman Notch-1/Fc Chimera, CF (R&D …). The assay is described as above.
Assay [13] has as its target T3, Recombinant Human DLL4 (R&D Systems …). The assay is described as above.
Assay [14] has as its target T4, rHuman EGF R/Fc Chimera, CF (R&D …). The assay is described as above.
The target of assay [15] is T5, rHuman P-Cadherin/Fc Chimera, CF (R&D …). Described as above.
Assay [16] concerns the target T1, rHuman Erythropoietin R/Fc Chimera, CF …. As to the kind of experiment: MSD multispot ECL, antigen spotted on plate; Fab 0.01859 uM; blank spot 1776.
The target in assay [17] is T2, rHuman Notch-1/Fc Chimera, CF (R&D …). The assay is described as above.
Assay [18] concerns the target T3, Recombinant Human DLL4 (R&D Systems …). The assay is described as above.
Assay [19] deals with T4, rHuman EGF R/Fc Chimera, CF (R&D …). The assay is described as above.
Assay [20] concerns the target T5, rHuman P-Cadherin/Fc Chimera, CF (R&D …). The assay is described as above.
Assay [21] concerns the target T6, rHuman IGF-1 sR, (IGF-1 sR), CF (R&D Systems Cat#391-GR) (human, UniProt P08069 31-932).
T6 construct: Bought recombinant soluble receptor; also called insulin-like growth factor-1 soluble receptor
As to the kind of experiment: Multispot ECL (MSD) assay, antigen spotted on plate, Fab at 0.48 µM; blank spot 2945.

Assay [22] has as its target T6, rHuman IGF-1 sR, (IGF-1 sR), CF (R&D …). As to the kind of experiment: Multispot ECL (MSD) assay, antigen spotted on plate, Fab at 0.096 µM; blank spot 917.
Assay [23] has the same target. Description: Multispot ECL (MSD) assay, antigen spotted on plate, Fab at 0.0192 µM; blank spot 751.
The target in assay [24] is T7, full-length human DLL4 expressed on the surface of CHO cells (human, UniProt Q9NR61 26-685).
T7 construct: also called CHO-DLL4; DLL4-expressing CHO cells
As to the kind of experiment: flow cytometry; 250 nM biotinylated Notch-Fc on CHO-DLL4 cells, streptavidin-PE; no-Fab baseline of the blocking series. For orientation: A flow cytometer gives signals particle by particle.

B1: Fab VH1-46_IGHD6-13*01_IGHJ4*01 & L2_IGKJ1*01 (Fab, V domains shown)
VH: QVQLVQSGAEVKKPGASVKVSCKASGYTFTSYYMHWVRQAPGQGLEWMGIINPSGGSTSYAQKFQGRVTMTRDTSTSTVYMELSSLRSEDTAVYYCAREGYSSSWYDYFDYWGQGTLVTVSS
VL: not shown
notes: Germline library Fab expressed in E. coli; VH was cloned into Plasmid A, which adds CH1 with His6 and Flag tags
Turning to B1, the ECL signal in [1] was found to be 193000; in assay [2], 72000; in [3], 74900; in [4] it was 62500; in assay [5], 69700; in [6], 154000. Further, the ECL signal worked out at 22000 in assay [7]; 20700 in assay [8]; 16600 in assay [9]; 14800 in [10]; 167000 in assay [11]; 37500 in [12]. For the same molecule, the ECL signal came to 34700 in [13]; 42200 in assay [14]; 26000 in assay [15]; 188000 in assay [16]; 17600 in assay [17]; 18900 in [18]. In addition, the ECL signal was 11800 in [19] and 11700 in assay [20].

B2: Fab VH1-46_IGHD6-13*01_IGHJ4*01 & A27_IGKJ1*01 (Fab, V domains shown)
VH: QVQLVQSGAEVKKPGASVKVSCKASGYTFTSYYMHWVRQAPGQGLEWMGIINPSGGSTSYAQKFQGRVTMTRDTSTSTVYMELSSLRSEDTAVYYCAREGYSSSWYDYFDYWGQGTLVTVSS
VL: not shown
notes: Germline Fab made in E. coli; VH was cloned in Plasmid A (CH1 constant region, His6 and Flag tags) and the kappa VL in Plasmid C (kappa CL); Only the variable domains are tied to this Fab by name
Consider B2, for which the ECL signal in [21] is 8930; in [22], 2450; in [23], 1830.

B3: rHuman Notch-1/Fc Chimera (Fc fusion)
chain: ARGPRCSQPGETCLNGGKCEAANGTEACVCGGAFVGPRCQDPNPCLSTPCKNAGTCHVVDRRGVADYACSCALGFSGPLCLTPLDNACLTNPCRNGGTCDLLTLTEYKCRCPPGWSGKSCQQADPCASNPCANGGQCLPFEASYICHCPPSFHGPTCRQDVNECGQKPGLCRHGGTCHNEVGSYRCVCRATHTGPNCERPYVPCSPSPCQNGGTCRPTGDVTHECACLPGFTGQNCEENIDDCPGNNCKNGGACVDGVNTYNCRCPPEWTGQYCTEDVDECQLMPNACQNGGTCHNTHGGYNCVCVNGWTGEDCSENIDDCASAACFHGATCHDRVASFYCECPHGRTGLLCHLNDACISNPCNEGSNCDTNPVNGKAICTCPSGYTGPACSQDVDECSLGANPCEHAGKCINTLGSFECQCLQGYTGPRCEIDVNECVSNPCQNDATCLDQIGEFQCICMPGYEGVHCEVNTDECASSPCLHNGRCLDKINEFQCECPTGFTGHLCQ
notes: Bought from R&D Systems (Cat#3647-TK); also called Notch-Fc; Notch-FC; Fc part of the bought chimera not given
Take B3: the “signal of biotinylated Notch-Fc bound to CHO-DLL4 cells without Fab (read-out not given)” value in [24] was found to be 531.
